Measured values published in the supplement of paper PMC10567573.

B1: BRF1 (parent)
chain: CTACGSVLEDNIIVSEVQFVESSG

Variants of: B1
Assay: protein stability index of a GFP-peptide fusion (GPS, HEK-293T) (PSI 1-6); higher = more stable
Conditions: c terminus: a fixed tail appended
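Note: lentivirally expressed fusions sorted by FACS into six bins by GFP to DsRed ratio, PSI derived from sequencing read proportions per bin multiplied by bin number.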

Protein stability index: each site, then its substitutions
I13: K 3.89; L 2.79; T 3.56; R 3.92; S 4.05; H 3.84; E 4.11; M 3.97; Q 4.01; D 3.13; P 4.25; F 3.08; C 4.75; G 3.61; A 3.96; N 3.79
C4: E 4.21; M 3.88; S 3.5; P 2.68; T 3.21; N 4.37; K 4.04; R 3.57; D 4.7; V 3.83; G 3.74; H 4.04; Y 2.61; I 3.35; Q 4.18; L 3.15; A 3.49; F 2.78
S15: Y 2.06; E 3.74; V 1.91; I 1.36; T 3.02; K 3.19; H 2.71; P 3.15; L 1.69; A 3.65; G 2.92; M 1.16; C 2.82; R 3.67; F 1.04; Q 3.11; D 4.08; N 3.79; W 2.75
V17: N 3.56; G 4.45; S 4.35; Y 2.87; M 2.37; R 3.83; I 1.92; C 3.48; Q 4.07; F 2.56; K 4.41; T 4.09; D 3.87; L 2.29; P 3.71; H 4.4; A 4.27; W 2.1; E 3.88
N11: H 2.12; K 4.01; P 2.91; L 2.98; W 1.01; V 1.96; E 2.19; Q 2.6; A 1.54; G 2.96; I 1.14; T 2.44; F 1.89; S 2.42; M 1.05; D 2.84; Y 2.06; C 1.74
F19: W 2.88; C 2.43; M 3.63; Y 3.49; A 5.26; H 4.36; L 3.49; Q 3.76; G 4.32; N 4.33; D 4.53; S 4.59; E 4.27; R 4.42; T 3.98; V 3.11; K 4.19; I 2.87; P 4.2
Q18: P 3.1; L 2.4; E 3.22; N 2.77; H 1.91; K 3.27; F 1.79; Y 1.47; I 1.82; W 1.75; R 2.42; T 2.31; S 2.44; A 3.26; D 2.89; V 2.01; G 3.47; C 2.52; M 2.36
D10: N 2.55; T 1.79; L 3.29; M 2.94; Y 2.24; K 3.43; H 2.67; G 1.84; E 3.38; R 3.89; A 2.41; I 3.2; Q 2.14; W 1.22; P 3.44; S 1.34
E9: I 2.08; Q 2.99; F 2.67; W 1.83; N 2.85; S 2.85; L 2.24; V 2.26; T 2.55; A 3.03; R 3.02; C 2.31; P 3.75; K 3.55; G 2.16; M 2.57; D 3.55; H 2.32; Y 2
L8: P 3.9; H 3.32; I 3.44; S 3.06; F 2.37; K 3.54; C 3.29; N 4.42; T 4.19; D 3.65; R 3.03; Y 2.93; Q 3.63; W 1.89; M 3.79; A 2.9; E 3.68; V 3.24; G 3.39
V7: C 2.64; H 2.58; T 3.86; K 4.22; R 3.22; F 2.33; Q 2.96; G 2.8; N 2.94; D 3.44; P 3.64; E 4.17; I 2.56; S 2.85; M 2.72; W 2.53; A 3.8; L 2.51; Y 2.37
S6: Q 2.44; H 4.15; K 3.06; Y 1.59; L 1.39; F 1.24; D 2.94; E 2.2; V 2.22; R 2.51; N 2.5; C 2.38; A 2.73; T 3.38; P 2.79; G 3.35; M 1.82; I 1.27
E16: K 3.42; P 3.33; L 3.15; C 3.61; Y 3.77; G 3.51; V 2.58; S 2.38; Q 2.9; N 2.9; W 1.9; M 3.11; A 2.66; F 2.08; T 2.2; H 3.22; I 3.35; R 3.09; D 3.87
V14: K 3.53; H 3.94; G 3.54; A 3.63; Y 2.73; D 4.33; T 3.95; Q 4.25; S 3.49; R 3.89; E 4.28; C 2.64; W 2.14; P 3.96; I 2.68; N 4.23; L 2.78; F 2.57
I12: Y 3.15; K 4.16; L 3.06; T 3.88; Q 4.35; F 2.23; W 2.39; G 3.73; D 3.08; E 4; H 3.41; N 4.8; V 2.99; C 3.53; S 3.95; P 3.55; A 3.77; M 3.13; R 4.29
A3: P 3.47; Q 3.88; W 3.08; H 2.56; D 2.28; V 3.22; R 2.9; K 4.04; F 2.4; Y 2.5; M 2.87; I 2.06; E 3.6; G 2.37; S 2.91; N 4.03; L 2.08; T 3.07
G5: E 3.21; T 2.91; Q 2.92; C 1.78; A 2.86; R 2.4; I 2.76; K 3.33; H 1.76; Y 1.76; S 3.17; V 1.33; L 1.75; M 2.1; D 3.62; P 3.67; F 2.41; W 2.27; N 3.24
V20: I 3.11; H 3.23; A 3.65; G 3.6; L 3.97; E 3.88; D 4.52; C 2.21; F 3.15; K 3.44
T2: P 2.72; L 2.75; M 2.78; S 2.87; K 3.48; R 3.17; Y 2.21; W 2.54; V 1.86; I 2.52; Q 3.48; N 3.02
